# Laboratory results from article PMC8309402, “Evolutionary Implications of a Peroxidase with High Affinity for Cinnamyl Alcohols from Physcomitrium patens, a Non-Vascular Plant” (Plants, 2021).
# Assays:
# [1] = substrate: COc1cc(/C=C/CO)ccc1O; experiment: purified protein; type: biochemical, Physcomitrium patens; settings: 0.5 mM H2O2 (saturating), 50 mM sodium acetate pH 5.0, 5-100 μM substrate
# [2] = substrate: COc1cc(/C=C/CO)cc(OC)c1O; experiment: purified protein; type: biochemical, Physcomitrium patens; settings: 0.5 mM H2O2 (saturating), 50 mM sodium acetate pH 5.0, 1-110 μM substrate
protein,measurement,setting,value
"PpaPrx19 (Physcomitrium patens) (protein, native, purified from gametophores (ammonium sulfate, phenyl Sepharose, SP Sepharose); mature secreted protein, 332 aa precursor incl; 26 aa N-terminal signal peptide (predicted); 46 kDa lipase (XP_001755452) co-purified) TTDFYAKSCPRIHSIVKAEIKKAVNVEKRMAASLIRLHFHDCFVHGCDGSILLDSIPGMDSEKFAPPNDRSARGYEAIDAIKVALEKACPRTVSCADILAIAYRDSAVEVGLVPEYPVPFGRRDSLRAAPIAEVNLRLPGPDFDISTLKASFANQSLDERDLVALSGAHTIGRVRCQFVRLFLNDPGTNADFKKELARLCAPTVDAFTLQNLDLKTPDKFDNNYYKNLRRGEGIIRSDQVLWSSEGTHQKITKDFAENQENFFRQFIESSIKMGKIKPPPGSPSEIRLNCHQANPRPLIEQVVAVE",Km,[1],16.7 µM
same,kcat,[1],3940 s⁻¹
same,kcat/Km,[1],2.36e+08 M⁻¹ s⁻¹
same,Km,[2],20.8 µM
same,kcat,[2],281 s⁻¹
same,kcat/Km,[2],1.35e+07 M⁻¹ s⁻¹
